Source: the DeepSol protein solubility set

Assay: soluble on expression in E. coli; label from the status in PepcDB or PDB records

In the case of “MGHHHHHHSHMAGLQRLASHLPVGVMLPHNTTEAPGPHSAKQDSYEQGDSSQQSLKGHLRNNFQKQLLSNKELILDKVYTHPKWNTQTKARSYSYPHCTGISQQDPESDSQGQGNGLFYSSGPQSWYPKANNQDFIPFTKKRVGVDRAFPLKPMVHRKSCSTGEAGTDGDHNVYPRPPEPREFSSRNFGVRNQGNFSVVGTVLAATQAEKAVANFDRTEWVQIRRLEAAGESLEEEIRRKQILLRGS”, the “soluble on expression in E. coli” value is reported as “not soluble”.
In the case of “MGSDKIHHHHHHMMSDEKNLGVSQKLVSPSRSTSSCSSKQGSRQDSWEVVEGLRGEMNYTQEPPVQKGFLLKKRKWPLKGWHKRFFYLDKGILKYAKSQTDIEREKLHGCIDVGLSVMSVKKSSKCIDLDTEEHIYHLKVKSEEVFDEWVSKLRHHRMYRQNEIAMFPHEVNHFFSGSTITDSSSGVFDSISSRKRSSISKQNLFQTGSNVSFSCGGETRVPLWLQSSEDMEKCSKDLAHCHAYLVEMSQLLQSMDVLHRTYSAPAINAIQGGSFESPKKEKRSHRRWRSRAIGKDAKGTLQVPKPFSGPVRLHSSNPNLSTLDFGEEKNYSDGSETSSEFSKMQEDLCHIAHKVYFTLRSAFNIMSAEREKLKQLMEQDASSSPSAQVIGLKNALSSALAQNTDLKERLRRIHAESLLLDSPAVAKSGDNLAEENSRDENRALVHQLSNESRLSITDSLSEFFDAQEVLLSPSSSENEISDDDSYVSDISDNLSLDNLSNDLDNERQTLGPVLDSGREAKSRRRTCLPAPCPSSSNISLWNILRNNIGKDLSKVAMPVELNEPLNTLQRLCEELEYSELLDKAAQIPSPLERMVYVAAFAISAYASSYYRAGSKPFNPVLGETYECIREDKGFQFFSEQVSHHPPISACHAESRNFVFWQDVRWKNKFWGKSMEIVPIGTTHVTLPVFGDHFEWNKVTSCIHNILSGQRWIEHYGEIVIKNLHDDSCYCKVNFIKAKYWSTNAHEIEGTVFDRSGKAVHRLFGKWHESIYCGGGSSSACVWRANPMPKGYEQYYSFTQFALELNEMDPSSKSLLPPTDTRFRPDQRFLEEGNLEEAEIQKQRIEQLQRERRRVLEENHVEHQPRFFRKSDDDSWVSNGTYLELRKDLGFSKLDHPVLW”, the “soluble on expression in E. coli” value is reported as “not soluble”.
For “GPGSMRSAVTCIKSPGAALFTDTATCRTITLSRPDALNVMSLPMVQDLHRLYITEPHPNEDAVYVVRGDGRRSFCAGGDLKALTGPERDTHNPLFYRLEYEVDSHIAVMRRTQVAMWAGHVLGSGVGVSVHSRYRVACETTRFAMPETQIGGANDVATSWVFSSLPICGLGMYLAITGNALQGADVFHAGLATHYIPVEKFGAVEAALAALPSSEGVEECLRGFSEDVAVPPFTLAESAPVLAKAFGTITPWTRLRDIMDVLRADGSAFAASTLEVMERNSPLGMTLALENMKRQHTPGCNTVMESFRGDYTAIQTSIFADELAKGVEALFVTKEKRPQWTVESVDEVDVELVKQQFALTEGVRVSAGGKDGRACFGVFGCYRAQASPVG”, the “soluble on expression in E. coli” value was “soluble”.
In the case of “LPTGIIIAATPLGNIGDASPRLVHALANATVVAAEDTRRTASLAAALGVEIKGQLVSNFDHNEQARVGKLIEAARTGTVLVVSDAGMPVVSDPGFALIDAAHDANIPVTCFPGPS”, the “soluble on expression in E. coli” value is reported as “not soluble”.
For “MLLSPPTNCRFFCFLYFPKVSSSSWEEDGFDARTLLSTPTDSSGFSLYVFSVLFCFSNLL”, the “soluble on expression in E. coli” value was “not soluble”.
In the case of “MGSDKIHHHHHHMQIKLSTDGCTDFMFILENTVNHGIIMQPYHSYFVGPMDICSALITLSGTINTFGVRFRPCGLSRFMKISLSELTNIRLSVNDLNTIFSDSFAERLFEEQGIQCKINLIERYLKKHLYKSNHTMDTQISYAVNQINAHEGKISISHLMDEVNLCQRHFERKFKLHTGFTPQKYNSIVKFKNAIKILRNESFDNLLSVAVKAGYYDASHLSREVKKLSGSTPNFFLSLPPDNETTIIYTK”, the “soluble on expression in E. coli” value is reported as “not soluble”.
For “MAHHHHHHSLMLVVRPISMADYEALHTCAVESGHGFTSLPVDQELLTNRITHSEYSFSKPNVTMPGDEGYLMVGVDTETGQVAGTTGIEASIGWDVPFYSYHISTIVHSSPKLGVNNVVKLLTFGNNYTGCSEICTLFLRPQYRQGLNGRLMSKCRFLMMAEHSHRFSKTIFAEMRGVSDADGNSPFWKWLQEHFFSIDFTLADYLTGIGKKGFIADLMPKLPIYVNLLSKEAQAVIGQVHENTRPALVLLEKEGFTCRNYVDIFDAGPTVECELNNIESVRHSVRAIVEVAEHSSSQNFIMCNTSFENFRATAAKAAYSQEDNAVIISPKVAAALEVSTGDYLRILAQEG”, the “soluble on expression in E. coli” value was “not soluble”.
With “MGSDKIHHHHHHLASHHSLLNHQRHFERIGPDYRNGDSVSFLDIKHTFGLQHIRVGKWVNREESALAANLIFDSLADLANILAVPPELIGLRGSLRFAFGHGGQKGVQAHYSPAYRELALAKNAGAGALAHEFWHAFDHYIADKMFIDDSILDPYLSSLILSEQTTNTTRTNFSRANLFACASDNWLADKSIIAHPLNKKLSSLFKVTLLSANGQEPHDYVRRSIALDKQQRSHYFAKPTEMMARAFESCIEMYSQDYANISNPYLVNSTIDSPLAKHGAYPDAQHCREIYQAMMEYFEPLGLAFDKQNGQK” the “soluble on expression in E. coli” value was “not soluble”.
For “MKEIWLLAESESWDEAKEMLKDAIEIGFDGALVRRDFLERAEKLGRMKIVPIEDAVVKISSAEDQERALQREVVVLKFEDWKVIPLENIVAMKKSGKVIAAVDTIEDAKLALTTLERGADGIAVSGDRETLRKFYEVVKEEGERVELVRARVKEIRPLGVGERVCIDTVTLMTPGEGMLVGNQASFMFLVASESEESEYVASRPFRVNAGSVNAYLKVGDKTRYLAELKAGDEVEVVKFDGAVRKSYVGRVKIERRPLILIRAEVDGVEGSVILQNAETIKLVAPDGKHVSVAELKPGDEILVWLGKKARHFGVEVDEFIVERLEHHHHHH”, the “soluble on expression in E. coli” value was “soluble”.
In the case of “MGSDKIHHHHHHMKHAFETLVGEVHAALQAGEQFTLGYSAEQSQFVRFNHAKVRQAGEVSQASAQLRLVRDGRQAEQQVTLSGDVQLDRQRLNVALEQLRQTLPLLALDPYLRLDENAWHSHSLQEPPLPALNEVLALLEREAGDLDLVGIYAAGPVCRGFASSFGAFGWHQANSFNVDWSLFHDNGQAVKANYAGQAWSADDFTARLRQAREQLGFLGRPAVTLKPGTYRAYLAPAAMDEVAGMLCWGGFSAQALATGNSALQRLYNGDARLSPLVSFTEQVSGSLSPAFSDEGAPRLDVPLIQQGEARQRLISARSAAEFELQANGADGYESPCALSLAPGNLASAQILERLGTGLYISNLWYLNYSDLPAARMTGLTRFATFWVEDGQIQGPVSTMRFDDSLYSLLGSQLEDLTQEREMILSTSTYGQRSTGSSHLPGALVKGLTLTL”, the “soluble on expression in E. coli” value is reported as “not soluble”.
For “MSLRYPMSKLAYHRVLLKLSGEALMGSADYGIDPKVINRLAGEVIEAQNAGAELALVIGGGNIFRGAGLAAKGMDRVTGDHMGMLATIINALAMQDALEKLGTKVRVMSAIKINNVCEDFIRRRAIRHLEKSRITIFAAGTGNPFFTTDSGAALRAIEIGADLLLKATKVDGIYNKDPQKHCDAVKYSTLSYDEVISQNLEVMDTAAFALARDSNLPLRIFDIEQPGVLLRILHGEEIGTLVKERNSKSEGHHHHHH”, the “soluble on expression in E. coli” value was “not soluble”.
With “MIKESTLHISFMAVRQTMRRVISRIVPPREVEDIVQETYVRICQVENKEAIKQPRSFLLKTAKNLAIDHLKRADIRLVDTVDNMAEFEHLVSADDAIYQQVATDKEFAQFCEAIRQLPIQCRKAFVLKKVYGYSQKEIAKKLAISESTVEKHIGLGVKRCTYFMMQLTKEERTETMKNSKKTHQVRRDL” the “soluble on expression in E. coli” value was “not soluble”.
In the case of “MGSDKIHHHHHHMYQPISIVNIYYQGFGDKRLIGKLTMDGRRPTFGYDAAWLADGLELSPIEMPLRSAPYYGSHASSHYLCGLLSDSLPDGWGMLLMDRFFRRTISNTAPVNILDRLAYIGDSAMGALSFEPQHDLSANVIDMSELTLAKLAAANQTILSGQDSDILAELIVIGGSPQGARPKALVLYDESSDFITTDTASKNPSATSWLIKFPAQSEHKSVCLLEALYADMAKKAGLNMPMHHYFDIDSEYAAFGVERFDRMGNQRVHIHTLAGLLDIDFRIPSLDYLQYLRCVRMLTQSQLAVESAFKHAVFNVIFNNKDDHSKNFSFMMNEAGSWSLSPVYDLAYNSGMNGYHQMDVAGEARYPTLSHLLKLAKLADIKQNKAQAIIDQVASVAEDFLTVINDHDIEKELSNRVIQDIKANINRMVS”, the “soluble on expression in E. coli” value is reported as “not soluble”.
For “GMATVRLLDDAEISTLPEVKAVFDDIRATRGSDFVNNIWRGLANDPALLKRTWEQVKTVMVGEGALDPLTREMIYLAVSTANSCSYCAHSHTAAARAKGMTPAQHAEVLAIIGLAAQTNALVTAMQIPVDEAFLVDGK”, the “soluble on expression in E. coli” value was “soluble”.
For “MGSDKIHHHHHHMKDLSSIVAKFNTQGTITEIKPLGAGLINDTYKVNTQEADAPDYVLQRINHAIFQNVEMLQSNIAAVTGHIRKKLTEAGEADIDRKVLSFLATEEGKTYWFDGESYWRVMVFIPRAKTYETVNPEYSNYAGEAFGNFQAMLADIPETLGETIPDFHNMEFRLKQLRDAVAANAAGRVAEVQYYLDEIEKRADEMCKAERLFREGKLPKRVCHCDTKVNNMMFDEDGKVLCVIDLDTVMPSFIFSDYGDFLRTGANTGDEDDKDLNRVNFNMEIFKAFTKGYLKGAKSFLTPIEIENLPYAAALFPYMQCVRFLADYINGDTYYKIKYPEHNLVRTKAQFKLLQSVEEHTPEMVAFINECLVNG”, the “soluble on expression in E. coli” value was “not soluble”.
With “MAEQRFCVDYAKRGTAGCKKCKEKIVKGVCRIGKVVPNPFSESGGDMKEWYHIKCMFEKLERARATTKKIEDLTELEGWEELEDNEKEQITQHIADLSSKAAGTPKKKAVVQAKLTT” the “soluble on expression in E. coli” value was “soluble”.
For “GSNRAIRTEKIICRDVARGYENVPIPCVNGVDGEPCPEDYKYISENCETSTMNIDRNITHLQHCTCVDDCSSSNCLCGQLSIRCWYDKDGRLLQEFNKIEPPLIFECNQACSCWRNCKNRVVQSGIKVRLQLYRTAKMGWGVRALQTIPQGTFICEYVGELISDAEADVREDDSYLFDLDNKDGEVYCIDARYYGNISRFINHLCDPNIIPVRVFMLHQDLRFPRIAFFSSRDIRTGEELGFDYGDRFWDIKSKYFTCQCGSEKCKHSAEAIALEQSRLARLD”, the “soluble on expression in E. coli” value was “soluble”.
For “MTLIDCCDPQKPSRVLFHFLILDAPSPSNLPTYIKELQHRGVRHLVRVCGPTYDATLVKSRGIDVHSWPFDDGAPPTRAVLDSWLKLLDTELARQQEDPSVPPPTIGVHCVAGLGRAPILVALALVEYGNVSALDAIALIREKRKGAINQTQMHWITKYKR”, the “soluble on expression in E. coli” value was “not soluble”.
With “MGSDKIHHHHHHMAGTHLFHGCQAAPLLPESTPFYCTRTIFFKPAFYCVEGSGVKTNPMKINAGTPDSVNQQVIVIGAGVIGLANAVTLARRGFKVTVIDKEGVAAGASFGNAGHFATEQVFPLADPSLLPKLPKMLLDPLGPFRIRPAYFHRALPWFVRFIVNMMPARRQHNGNAIKALNARSMAATKELLTFCGRADLLVENGSLLVFETQDPRVMEQELALYNDAGIAVRLLSGDEARALEPDLSDAISGALWFTEVGHTPNPRAICEALADTLKALGGRIEIDSVCSLQGGNTPSVTTETGKVTKADKLLLCAGAWSRPLALKLGHRVPLETERGYHLMMPQHSGLKRPVASYERKFIITPMEDGTRLAGTVEFGGLNAPMSNARADCLLPHARVLLPKVFATARVSEGKRWMGFRPSLPDSLPVLGESQTPGVYFAFGHQHLGLTWAASSAELLGQLICGETPSIDLSPYCVKRFD” the “soluble on expression in E. coli” value was “not soluble”.
In the case of “MKLSQLGFFCAVVERGTIAAAAEQLHCVPSNITTRLRELEGQLGVALFNRERNRLLVTPEGRLLYRHATRLLALADETAALFAGDQAHGALRVGALDVALANHLPQRLARYRRESPGVELHIRPEHSLLLERLLMEGELDLIVTDGPIEHPLLASRLAFRERLLRVTPADLPAPTPEDLAGLELYVFGHTCHYRRQVDRWLAESAIQPRATLEIESYPSLFACIEAGLGFACVPESFVARRPSTRRGFHAEPVAGLDSSDIHFVWRKQQASPLIQGFIDSIGAD”, the “soluble on expression in E. coli” value is reported as “not soluble”.
